Laboratory results reported in patent US20150086562A1 (BIOATLA, published 2015).

T1: CD22 protein expressed on the surface of Daudi cells (human, UniProt P20273 20-847)
T1 sequence (looked up): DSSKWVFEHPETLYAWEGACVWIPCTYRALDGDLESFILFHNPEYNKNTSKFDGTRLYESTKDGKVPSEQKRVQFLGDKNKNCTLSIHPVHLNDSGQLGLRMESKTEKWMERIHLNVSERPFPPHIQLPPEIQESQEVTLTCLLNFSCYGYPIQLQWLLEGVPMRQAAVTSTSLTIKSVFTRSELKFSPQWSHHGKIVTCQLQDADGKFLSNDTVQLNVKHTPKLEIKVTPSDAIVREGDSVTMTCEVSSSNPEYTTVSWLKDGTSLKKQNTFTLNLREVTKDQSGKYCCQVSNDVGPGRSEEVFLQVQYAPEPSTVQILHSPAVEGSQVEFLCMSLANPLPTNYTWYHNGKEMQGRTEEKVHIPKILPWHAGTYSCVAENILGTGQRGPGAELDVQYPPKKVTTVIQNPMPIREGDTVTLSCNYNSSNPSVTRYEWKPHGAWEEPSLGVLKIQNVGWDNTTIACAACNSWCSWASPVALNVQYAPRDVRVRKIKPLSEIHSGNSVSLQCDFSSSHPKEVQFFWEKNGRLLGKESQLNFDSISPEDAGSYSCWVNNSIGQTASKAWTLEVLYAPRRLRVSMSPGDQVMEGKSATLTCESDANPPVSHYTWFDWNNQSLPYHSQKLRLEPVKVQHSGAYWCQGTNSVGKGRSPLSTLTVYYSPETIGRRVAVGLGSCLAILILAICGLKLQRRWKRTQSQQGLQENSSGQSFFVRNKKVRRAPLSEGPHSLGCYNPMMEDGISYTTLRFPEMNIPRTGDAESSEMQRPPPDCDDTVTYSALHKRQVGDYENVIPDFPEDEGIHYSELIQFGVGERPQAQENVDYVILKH


Tests used:
[1] = biological target: T2, recombinant CD22 extracellular domain; experiment: ELISA on plates coated with recombinant CD22 extracellular domain (coating 2, 0.2, 0.02 or 0.002 ug/ml per paragraph 227; the sheet does not say which), anti-human IgG-HRP, read at 450 nm
T2 construct: Kept apart from m18, which is cell-surface CD22; also called CD22 (analyte in the BIAcore runs); CD22 ECD
Protocol: Nunc-Immuno MaxiSorp 96 well plates were coated with 100 μl of 2 μg/ml, 0.2 μg/ml, 0.02 μg/ml or 0.002 μg/ml recombinant CD22 extracellular domain (PeproTech, Inc. catalog number 100-01 in coating solution (sodium bicarbonate in PBS). The plates were covered with plate sealer and incubated at 4° C. overnight. Plates were emptied and the residual liquid tapped out on paper towels. 200 μl washing solution (0.05% Tween-20 in PBS) was added and shaken at 200 RPM for 5 min at room temperature. The plates were emptied and residual liquid tapped out on paper towels. 200 μl blocking solution (2% Carnation milk in PBS) was added and shaken at 200 RPM for one hour at room temperature. Plates were emptied and residual liquid tapped out on paper towels. 100 μl of diluted samples containing VM1000, VM1001, VM1002, VM1003, VM1004, VM1005, VM1006, VM1007, VM1008, VM1009, VM1010, VM1011, VM1012, VM1013, VM1014, and VM1015 antibodies for ELISA were used. The samples were shaken at 200 RPM for one hour at room temperature; plates emptied and residual liquid tapped out on paper towels. 200 μl washing solution (0.05% Tween-20 in PBS) was added, shaken at 200 RPM for 5 min at room temperature; plates emptied and residual liquid tapped out on paper towels. This process was repeated three times. 100 μl of 1:2500 dilution of anti-human IgG conjugated with HRP diluted in block solution (2% Carnation milk in PBS) was added for all samples. 100 μl of 1:2500 dilution of anti-rabbit IgG conjugated with HRP diluted in block solution (2% Carnation milk in PBS) was added for control antibody. The contents were shaken at 200 RPM for one hour at room temperature, plates emptied and residue liquid tapped out on paper towels. 200 μl washing solution (0.05% Tween-20 in PBS) was added, shaken at 200 RPM for 5 min at room temperature; plates emptied and residual liquid tapped out on paper towels. This process was repeated three times. 100 μl TMB substrate solution was added, and incubated at room temperature. The reaction was stopped with 1 N HCl, and the plate read at 450 nm to determine relative binding affinity (FIG. 17).

[2] = biological target: T1, CD22 protein expressed on the surface …; experiment: cell-based or functional assay

Binder | ELISA OD 450 [1] | Daudi Internalization by FACS, % Shift [2] [%]
VM1000 (antibody, V domains shown, Humanized antibody with human constant region; also called anti-CD22 Mab clone VM1000) VH: QVQLVQSGAEVKKPGASVKVSCKASGYVFTSYWLHWIRQSPSRGLEWLGYINPRNDYTEYNRIFKGRLTISKDTSKNQVVLTMTNMDPVDTATYYCARRGITTFYWGQG VL: EIVLTQSPATLSLSPGERATLSCKSSQSVLYSAVEKNYLAWYQQKPGKAPKLLIYWASTRERGVPSRFSGSGSGTDFTFTISSLQPEDIATYYCKQYLSSWTFGQG | 0.517 | 85.9
VM1001 (antibody, V domains shown, Humanized antibody with human constant region; also called anti-CD22 Mab clone VM1001) VH: QVQLVQSGAEVKKPGASVKVSCKASGYVFTSYWLHWIRQSPSRGLEWLGYINPRNDYTEYNRIFKGRLTISKDTSKNQVVLTMTNMDPVDTATYYCARRGITTFYWGQG VL: EIVLTQSPATLSLSPGERATLSCKSSQSVLYSAVEKNYLAWYQQKPGQAPRLLIYWASTRERGIPDRFSGSGSGTDFTLTISRLEPEDFAVYYCKQYLSSWTFGQG | 0.386 | 86.4
VM1002 (antibody, V domains shown, Humanized antibody with human constant region; also called anti-CD22 Mab clone VM1002) VH: EVQLVQSGAEVKKPGESLRISCKGSGYVFTSYWLHWVRQAPGQGLEWMGYINPRNDYTEYNRIFKGRVTITADKSTSTAYMELSSLRSEDTAVYYCARRGITTFYWGQG VL: EIVLTQSPATLSLSPGERATLSCKSSQSVLYSAVEKNYLAWYQQKPGQAPRLLIYWASTRERGIPDRFSGSGSGTDFTLTISRLEPEDFAVYYCKQYLSSWTFGQG | 0.495 | 84.6
VM1004 (antibody, V domains shown, Humanized antibody with human constant region; also called anti-CD22 Mab clone VM1004) VH: EVQLVQSGAEVKKPGATVKISCKVSGYVFTSYWLHWIRQSPSRGLEWLGYINPRNDYTEYNRIFKGRFVFSLDTSVSTAYLQICSLKAEDTAVYYCARRGITTFYWGQG VL: EIVLTQSPATLSLSPGERATLSCKSSQSVLYSAVEKNYLAWYQQKPGKAPKLLIYWASTRERGIPDRFSGSGSGTDFTLTISRLEPEDFAVYYCKQYLSSWTFGQG | 0.444 | 87.1
VM1003 (antibody, V domains shown, Humanized antibody with human constant region; also called anti-CD22 Mab clone VM1003) VH: EVQLVQSGAEVKKPGATVKISCKVSGYVFTSYWLHWIRQSPSRGLEWLGYINPRNDYTEYNRIFKGRFVFSLDTSVSTAYLQICSLKAEDTAVYYCARRGITTFYWGQG VL: EIVLTQSPATLSLSPGERATLSCKSSQSVLYSAVEKNYLAWYQQKPGQAPRLLIYWASTRERGIPDRFSGSGSGTDFTLTISRLEPEDFAVYYCKQYLSSWTFGQG | 0.56 | 70.8
VM1006 (antibody, V domains shown, Humanized antibody with human constant region; also called anti-CD22 Mab clone VM1006) VH: QVQLVQSGAEVKKPGASVKVSCKASGYVFTSYWLHWIRQSPSRGLEWLGYINPRNDYTEYNRIFKGRFVFSLDTSVSTAYLQICSLKAEDTAVYYCARRGITTFYWGQG VL: DIQMTQSPSSLSASVGDRVTITCKSSQSVLYSAVEKNYLAWYQQKPGKAPKLLIYWASTRERGIPDRFSGSGSGTDFTLTISRLEPEDFAVYYCKQYLSSWTFGQG | 0.638 | 88.3
VM1007 (antibody, V domains shown, Humanized antibody with human constant region; also called anti-CD22 Mab clone VM1007) VH: QVQLVQSGAEVKKPGASVKVSCKASGYVFTSYWLHWVRQARGQRLEWIGYINPRNDYTEYNRIFKGRVTITADKSTSTAYMELSSLRSEDTAVYYCARRGITTFYWGQG VL: AIQLTQSPSSLSASVGDRVTITCKSSQSVLYSAVEKNYLAWYQQKPGKAPKLLIYWASTRERGVPSRFSGSGSGTDFTFTISSLEAEDAATYYCKQYLSSWTFGQG | 0.538 | 85
VM1011 (antibody, V domains shown, Humanized antibody with human constant region; also called anti-CD22 Mab clone VM1011) VH: QVQLQESGPGLVKPSQTLSLTCTVSGYVFTSYWLHWIRQPPGKGLEWIGYINPRNDYTEYNRIFKGRVTITADKSTSTAYMELSSLRSEDTAVYYCARRGITTFYWGQG VL: EIVLTQSPATLSLSPGERATLSCKSSQSVLYSAVEKNYLAWYQQKPGQAPRLLIYWASTRERGIPDRFSGSGSGTDFTLTISRLEPEDFAVYYCKQYLSSWTFGQG | 0.15 | 87.1
